Results: IntAct's records for PubMed 21460798

B1: APC/C activator protein CDH1 (Saccharomyces cerevisiae), P53197 (parent)
chain: MSTNLNPFMNNTPSSSPLKGSESKRVSKRPISSSSSASLLSSPSRRSRPSTVYGDRYIPSRTDIDFNSIVSISSMASVPALNPSSTEDQVEYQKERQAHETYNTLLKNELFGEMLSKDTVGSESSIDRIKNTRPSTRGNVHAENTTRHGYELERVSTPPPEAAGLEEFSPHSTPVTPRRLFTSQQDEITRPSSNSVRGASLLTYQQRKGRRLSAASLLQSQFFDSMSPVRPDSKQLLLSPGKQFRQIAKVPYRVLDAPSLADDFYYSLIDWSSTDVLAVALGKSIFLTDNNTGDVVHLCDTENEYTSLSWIGAGSHLAVGQANGLVEIYDVMKRKCIRTLSGHIDRVACLSWNNHVLTSGSRDHRILHRDVRMPDPFFETIESHTQEVCGLKWNVADNKLASGGNDNVVHVYEGTSKSPILTFDEHKAAVKAMAWSPHKRGVLATGGGTADRRLKIWNVNTSIKMSDIDSGSQICNMVWSKNTNELVTSHGYSKYNLTLWDCNSMDPIAILKGHSFRVLHLTLSNDGTTVVSGAGDETLRYWKLFDKPKAKVQPNSLIFDAFNQIR
B2: Probable serine/threonine-protein kinase HSL1 (Saccharomyces cerevisiae), P34244 (parent)
chain: MTGHVSKTSHVPKGRPSSLAKKAAKRAMAKVNSNPKRASGHLERVVQSVNDATKRLSQPDSTVSVATKSSKRKSRDTVGPWKLGKTLGKGSSGRVRLAKNMETGQLAAIKIVPKKKAFVHCSNNGTVPNSYSSSMVTSNVSSPSIASREHSNHSQTNPYGIEREIVIMKLISHTNVMALFEVWENKSELYLVLEYVDGGELFDYLVSKGKLPEREAIHYFKQIVEGVSYCHSFNICHRDLKPENLLLDKKNRRIKIADFGMAALELPNKLLKTSCGSPHYASPEIVMGRPYHGGPSDVWSCGIVLFALLTGHLPFNDDNIKKLLLKVQSGKYQMPSNLSSEARDLISKILVIDPEKRITTQEILKHPLIKKYDDLPVNKVLRKMRKDNMARGKSNSDLHLLNNVSPSIVTLHSKGEIDESILRSLQILWHGVSRELITAKLLQKPMSEEKLFYSLLLQYKQRHSISLSSSSENKKSATESSVNEPRIEYASKTANNTGLRSENNDVKTLHSLEIHSEDTSTVNQNNAITGVNTEINAPVLAQKSQFSINTLSQPESDKAEAEAVTLPPAIPIFNASSSRIFRNSYTSISSRSRRSLRLSNSRLSLSASTSRETVHDNEMPLPQLPKSPSRYSLSRRAIHASPSTKSIHKSLSRKNIAATVAARRTLQNSASKRSLYSLQSISKRSLNLNDLLVFDDPLPSKKPASENVNKSEPHSLESDSDFEILCDQILFGNALDRILEEEEDNEKERDTQRQRQNDTKSSADTFTISGVSTNKENEGPEYPTKIEKNQFNMSYKPSENMSGLSSFPIFEKENTLSSSYLEEQKPKRAALSDITNSFNKMNKQEGMRIEKKIQREQLQKKNDRPSPLKPIQHQELRVNSLPNDQGKPSLSLDPRRNISQPVNSKVESLLQGLKFKKEPASHWTHERGSLFMSEHVEDEKPVKASDVSIESSYVPLTTVATSSRDPSVLAESSTIQKPMLSLPSSFLNTSMTFKNLSQILADDGDDKHLSVPQNQSRSVAMSHPLRKQSAKISLTPRSNLNANLSVKRNQGSPGSYLSNDLDGISDMTFAMEIPTNTFTAQAIQLMNNDTDNNKINTSPKASSFTKEKVIKSAAYISKEKEPDNSDTNYIPDYTIPNTYDEKAINIFEDAPSDEGSLNTSSSESDSRASVHRKAVSIDTMATTNVLTPATNVRVSLYWNNNSSGIPRETTEEILSKLRLSPENPSNTHMQKRFSSTRGSRDSNALGISQSLQSMFKDLEEDQDGHTSQADILESSMSYSKRRPSEESVNPKQRVTMLFDEEEEESKKVGGGKIKEEHTKLDNKISEESSQLVLPVVEKKENANNTENNYSKIPKPSTIKVTKDTAMESNTQTHTKKPILKSVQNVEVEEAPSSDKKNWFVKLFQNFSSHNNATKASKNHVTNISFDDAHMLTLNEFNKNSIDYQLKNLDHKFGRKVVEYDCKFVKGNFKFKIKITSTPNASTVITVKKRSKHSNTSSNKAFEKFNDDVERVIRNAGRS
partner: B1 chain
B3: APC/C-CDH1 modulator 1 (Saccharomyces cerevisiae), Q08981 (parent)
chain: MISPSKKRTILSSKNINQKPRAVVKGNELRSPSKRRSQIDTDYALRRSPIKTIQISKAAQFMLYEETAEERNIAVHRHNEIYNNNNSVSNENNPSQVKENLSPAKICPYERAFLREGGRIALKDLSVDEFKGYIQDPLTDETIPLTLPLGDKKISLPSFITPPRNSKISIFFTSKHQGQNPETKISRSTDDVSEKKVVRKLSFHVYEDE
partner: B1 chain
B4: APC/C activator protein CDH1 (Saccharomyces cerevisiae), P53197 (parent)
chain: B1 chain
partner: B3 chain

Variants of: B1
Conditions: with hsl1_yeast HSL1, P34244

Variant	effect of a mutation on the interaction
G535A	disrupting interaction
L255V	disrupting interaction
P258A	disrupting interaction
D536A	increasing interaction

Variants of: B2
Conditions: with cdh1_yeast CDH1, P53197

Variant	effect of a mutation on the interaction
E776A	disrupting interaction
K775A	disrupting interaction
N777A	disrupting interaction
E781A	disrupting interaction

Variants of: B3
Conditions: with cdh1_yeast CDH1, P53197

Variant	effect of a mutation on the interaction
R119A	disrupting interaction
K98A	disrupting interaction
E65D	disrupting interaction
E66A	disrupting interaction
L122A	disrupting interaction
E99A	disrupting interaction
N100A	disrupting interaction

Variants of: B3
Conditions: with cdh1_yeast CDH1, P53197
Remark: another data set of the same source

Variant	effect of a mutation on the interaction
E69A	disrupting interaction
E65A	disrupting interaction
E66D	disrupting interaction
T67A	disrupting interaction

Variants of: B3
Conditions: with cdh1_yeast CDH1, P53197
Remark: another data set of the same source

Variant	effect of a mutation on the interaction
E69A	decreasing interaction
E65A	decreasing interaction
E66A	decreasing interaction
T67A	decreasing interaction

Variants of: B3
Conditions: with cdh1_yeast CDH1, P53197
Remark: another data set of the same source

Variant	effect of a mutation on the interaction
R8A	disrupting interaction
L11D	disrupting interaction

Variants of: B4
Conditions: with acm1_yeast ACM1, Q08981

Variant	effect of a mutation on the interaction
P258A	disrupting interaction
L255V	disrupting interaction
D536A	increasing interaction
G535A	disrupting interaction
